Reference: patent publication US20120034231A1 (Novartis, published 2012)
Like-named read-outs stand apart in the source and are kept apart here. Values belong to the binder of their own block, whether it stands above or below them.

Legend:
human IL4Rα/Fc = target: T1, human IL4Rα/Fc (human, UniProt P24394 26-232, limits assumed); experiment: ELISA, antigen directly coated, IgG4
T1 construct: also called rh IL4Ra/Fc
T1 sequence (looked up): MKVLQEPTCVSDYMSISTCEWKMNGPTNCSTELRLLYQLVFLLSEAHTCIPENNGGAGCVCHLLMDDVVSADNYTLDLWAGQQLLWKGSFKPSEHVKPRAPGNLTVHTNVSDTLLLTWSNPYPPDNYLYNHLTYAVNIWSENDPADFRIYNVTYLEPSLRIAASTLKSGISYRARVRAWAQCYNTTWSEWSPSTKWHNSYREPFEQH

cynomolgus IL12Rβ1 [1] = target: T2, cynomolgus IL12Rβ1 (cynomolgus, UniProt A0A2K5VWV1 24-662); experiment: FACS on Baf3 cells transfected with cyno IL12Rβ1, IgG4
T2 construct: whole, on cells; also called cyno IL12Rβ1; Cyno IL-12Rβ1
Procedure: (§1) Cells of the respective cell line (BaF3 cells stable transfected with cyno and human IL12Rβ1; HEK EBNA and Jurkat cells stable transfected with cyno IL12Rβ1) were counted and adjusted to 2×10⁷ cells/ml in PBS/3% FCS/0.02% NaN₃ (FAGS buffer). FAGS staining was performed in V-bottom 96-well microtiter plates (NUNC™, Wiesbaden, Germany) and 1×10⁵ cells per well were mixed with a) purified Fab fragments or b) purified IgG4 or c) positive control antibody (mouse anti IL12Rβ1, R&D Systems, Cat#: MAB839), diluted in FACS buffer and incubated at […] for 1 h. Cells were then washed 2× with 200 μl FACS buffer/well and taken up in 100 μl phycoerythrin-conjugated goat anti-human IgG (H+L) secondary antibody (Jackson ImmunoResearch) which has been diluted 1:200 in FACS buffer. After 45 min incubation at 4° C. cells were washed 3× with FAGS buffer, resuspended in 100 μl of FACS buffer and cell surface binding of IL12Rβ1 specific antibodies was measured via FL2 fluorescence intensity of cells in FACSCalibur™ (Becton Dickinson).

cynomolgus IL12Rβ1 [2] = target: T2, cynomolgus IL12Rβ1; experiment: FACS, 1 µg/ml IgG4, BaF3 cells expressing cyno IL12Rβ1
Procedure: as §1

human IL12Rβ1 = target: T3, human IL12Rβ1 (human, UniProt P42701 24-662); experiment: FACS on Baf3 cells transfected with human IL12Rβ1, IgG4
T3 construct: On stably transfected Ba/F3 cells in FACS; on primary human T cells within PBMC in the functional assay; also called human IL12Rβ1 transfected Baf3 cells; Ba/F3/IL12Rβ1 expressing cells
Procedure: as §1

cynomolgus IL12Rβ1 [3] = target: T2, cynomolgus IL12Rβ1; experiment: FACS, 1 µg/ml Fab, HEK cells expressing cyno IL12Rβ1
Procedure: as §1

[4] = target: T4, recombinant human IL12Rβ1/Fc fusion protein (human, UniProt P42701 24-545); experiment: solution equilibrium titration (SET), BioVeris ECL, Fab
T4 construct: Bought from R&D Systems; Partly used biotinylated; also called rh IL12Rβ1

[5] = target: T4, recombinant human IL12Rβ1/Fc fusion …; experiment: as above; remark: listed apart in the source
cynomolgus IL12Rβ1 [6] = target: T2, cynomolgus IL12Rβ1; experiment: FACS, 1 µg/ml Fab, Jurkat cells expressing cyno IL12Rβ1
Procedure: as §1

[7] = target: T4, recombinant human IL12Rβ1/Fc fusion …; experiment: BioVeris competition; Fab titrated with IL12Rβ1/Fc, competitor rhIL-12 on beads
Procedure: (§2) For the IL12 and IL23 binding inhibition assay, 25 μg recombinant human IL12 and 20 μg IL23 (R&D Systems) were directly coupled (NHS/EDC coupling) to 250 μl carboxylic acid M-270 Dynal magnetic beads (2×109 beads/ml), 50 μl Fab antibodies per well (20 nM stock) in 1:4 dilution steps (Fab concentration: 0.6 pM-10 nM) were incubated for 2 h with 50 μl of 40-100 pM IL12Rβ1/Fc fusion in 96 well plates (Nunc). 25 μl IL12 or IL23 coated beads and 1:500 diluted Streptavidin detection antibody labeled with BV-tag™ according to instructions of supplier (BioVeris Europe) were added to each well and incubated for 1.5 h. Detection was performed by BioVeris M-384 SERIES® Workstation (BioVeris Europe). EC50 determination was performed by evaluation of the resulting data by a 4-parameter logistic fit model (XLfit, IDBS).

[8] = target: T4, recombinant human IL12Rβ1/Fc fusion …; experiment: BioVeris competition; Fab titrated with IL12Rβ1/Fc, competitor rhIL-23 on beads
Procedure: as §2

binding result (human IL4Rα/Fc): no binding
EC50 (cynomolgus IL12Rβ1 [1]): 0.931 nM
MFI (mean fluorescent intensity) (cynomolgus IL12Rβ1 [2]): 350
EC50 (human IL12Rβ1): 0.9 nM
B3: MOR05278 IgG4 (antibody, V domains shown)
VH: QVQLVESGGGLVQPGGSLRLSCAASGFTFSSYGMSWVRQAPGKGLEWVSYIEPKLFWYATFYAASVKGRFTISRDNSKNTLYLQMNSLRAEDTAVYYCARNDFMEPAYFALWGQGTLVTVSS
VL: DIELTQPPSVSVAPGQTARISCSGDNLGSYYAYWYQQKPGQAPVGVIYDDSERPSGIPERFSGSNSGNTATLTISGTQAEDEADYYCSSYTYSKNNVFGGGTKLTVLG
notes: IgG4

MFI (mean fluorescent intensity) (cynomolgus IL12Rβ1 [3]): 368
Kd [4]: 0.059 nM
Kd [5]: 0.059 nM
MFI (mean fluorescent intensity) (cynomolgus IL12Rβ1 [6]): 249
EC50 [7]: 0.09 nM
EC50 [8]: 0.17 nM
B5: MOR05286 Fab (Fab, V domains shown)
VH: QVQLKESGPALVKPTQTLTLTCTFSGFSLSTSGMGVSWIRQPPGKALEWLALIDWTDDKYYSTSLKTRLTISKDTSKNQVVLTMTNMDPVDTATYYCARTVGKGLYRVDNWGQGTLVTVSS
VL: DIELTQPPSVSVAPGQTARISCSGDNLGSKFAYWYQQKPGQAPVLVIYDDSKRPSGIPERFSGSNSGNTATLTISGTQAEDEADYYCQSWDSSSGNDVFGGGTKLTVLG
notes: also called MOR5286

binding result (human IL4Rα/Fc): no binding
EC50 (cynomolgus IL12Rβ1 [1]): 0.073 nM
MFI (mean fluorescent intensity) (cynomolgus IL12Rβ1 [2]): 134
EC50 (human IL12Rβ1): 0.143 nM
B7: MOR05271 IgG4 (antibody, V domains shown)
VH: QVQLKESGPALVKPTQTLTLTCTFSGFSLSTSTMGVSWIRQPPGKALEWLAWIYWDDDKDYSTSLKSRLTISKDTSKNQVVLTMTNMDPVDTATYYCARANPDLGYFDYWGQGTLVTVSS
VL: DIALTQPASVSGSPGQSITISCTGTSSDLGESNYVSWYQQHPGKAPKVMIYDVNKRPSGVSNRFSGSKSGNTASLTISGLQAEDEADYYCGSYDEEDNVFGGGTKLTVLG
notes: IgG4

Continued, binder first:

B1: MOR05281 IgG4 (antibody, V domains shown)
VH: QVQLKESGPALVKPTQTLTLTCTFSGFSLSTRGVGVSWIRQPPGKALEWLALIYWDEDKYYSTSLKTRLTISKDTSKNQVVLTMTNMDPVDTATYYCARYQSGYYYNNDGWGVDIWGQGTLVTVSS
VL: DIQMTQSPSSLSASVGDRVTITCRASQSISSWLNWYQQKPGKAPKLLIYAASSLQSGVPSRFSGSGSGTDFTLTISSLQPEDFATYYCQQYYAFPHTFGQGTKVEIKR
notes: IgG4
binding result (human IL4Rα/Fc): no binding
EC50 (cynomolgus IL12Rβ1 [1]): 1 nM
MFI (mean fluorescent intensity) (cynomolgus IL12Rβ1 [2]): 144
EC50 (human IL12Rβ1): 1.2 nM

B2: MOR05281 Fab (Fab, V domains shown)
VH: B1 VH
VL: B1 VL
MFI (mean fluorescent intensity) (cynomolgus IL12Rβ1 [3]): 2
Kd [4]: 0.001 nM
Kd [5]: 0.001 nM
MFI (mean fluorescent intensity) (cynomolgus IL12Rβ1 [6]): 2
EC50 [7]: 0.06 nM
EC50 [8]: 0.07 nM

B4: MOR05278 Fab (Fab, V domains shown)
VH: B3 VH
VL: B3 VL
MFI (mean fluorescent intensity) (cynomolgus IL12Rβ1 [3]): 3
Kd [4]: 0.031 nM
Kd [5]: 0.031 nM
MFI (mean fluorescent intensity) (cynomolgus IL12Rβ1 [6]): 4
EC50 [7]: 0.08 nM
EC50 [8]: 0.24 nM

B6: MOR05286 IgG4 (antibody, V domains shown)
VH: B5 VH
VL: B5 VL
notes: IgG4; also called MOR5286
binding result (human IL4Rα/Fc): no binding
EC50 (cynomolgus IL12Rβ1 [1]): 4.8 nM
MFI (mean fluorescent intensity) (cynomolgus IL12Rβ1 [2]): 271
EC50 (human IL12Rβ1): 2.4 nM

B8: MOR05271 Fab (Fab, V domains shown)
VH: B7 VH
VL: B7 VL
MFI (mean fluorescent intensity) (cynomolgus IL12Rβ1 [3]): 2
Kd [4]: 0.021 nM
Kd [5]: 0.021 nM
MFI (mean fluorescent intensity) (cynomolgus IL12Rβ1 [6]): 3
EC50 [7]: 0.01 nM
EC50 [8]: 0.025 nM
